Assay results: publication PMC9482650, “Quantitative fragmentomics allow affinity mapping of interactomes” (Nature Communications, 2022)

Tests used:
Assay in all cases: holdup assay
Design in all cases: key: below the threshold = too weak to quantify, mostly under pKd 3.1 to 4
NHERF4_2, Q86UT5 = biological target: NHERF4_2, Q86UT5
HTRA2, O43464 = biological target: HTRA2, O43464
MPP6, Q9NZW5 = biological target: T1, MPP6, Q9NZW5
T1 sequence (Q9NZW5 125-219, limits assumed, looked up): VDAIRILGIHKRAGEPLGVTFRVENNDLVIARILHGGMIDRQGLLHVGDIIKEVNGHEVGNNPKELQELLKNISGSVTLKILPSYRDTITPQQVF

Inadl_10, Q8NI35 = biological target: Inadl_10, Q8NI35
Inadl_10, Q8NI35, sequence (Q8NI35 1673-1763): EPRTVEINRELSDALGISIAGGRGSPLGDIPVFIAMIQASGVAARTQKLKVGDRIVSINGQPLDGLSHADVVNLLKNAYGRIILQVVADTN

FRMPD1, Q5SYB0 = biological target: T2, FRMPD1, Q5SYB0
T2 sequence (Q5SYB0 52-145, limits assumed, looked up): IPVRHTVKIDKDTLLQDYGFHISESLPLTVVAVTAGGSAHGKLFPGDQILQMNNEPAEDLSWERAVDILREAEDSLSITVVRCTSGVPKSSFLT

NHERF3_3, Q5T2W1 = biological target: T3, NHERF3_3, Q5T2W1
T3 sequence (Q5T2W1 238-333, limits assumed, looked up): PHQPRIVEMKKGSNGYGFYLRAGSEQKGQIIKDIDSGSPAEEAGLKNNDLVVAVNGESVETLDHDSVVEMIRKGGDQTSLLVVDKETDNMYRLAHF

IL16_4, Q14005 = biological target: IL16_4, Q14005
IL16_4, Q14005, sequence (Q14005 1229-1329): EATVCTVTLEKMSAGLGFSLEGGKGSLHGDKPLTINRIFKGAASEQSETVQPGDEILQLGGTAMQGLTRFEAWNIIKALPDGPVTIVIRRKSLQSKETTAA

MAGI2_3, Q86UL8 = biological target: MAGI2_3, Q86UL8
MAGI2_3, Q86UL8, sequence (Q86UL8 600-682): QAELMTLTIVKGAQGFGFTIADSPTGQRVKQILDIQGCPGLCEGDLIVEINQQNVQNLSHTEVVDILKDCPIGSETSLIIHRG

Inadl_9, Q8NI35 = biological target: Inadl_9, Q8NI35
Inadl_9, Q8NI35, sequence (Q8NI35 1530-1615): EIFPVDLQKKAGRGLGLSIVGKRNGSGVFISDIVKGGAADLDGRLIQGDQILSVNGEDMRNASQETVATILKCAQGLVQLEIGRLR

RHPN1, Q8TCX5 = biological target: T4, RHPN1, Q8TCX5
T4 sequence (Q8TCX5 508-602, limits assumed, looked up): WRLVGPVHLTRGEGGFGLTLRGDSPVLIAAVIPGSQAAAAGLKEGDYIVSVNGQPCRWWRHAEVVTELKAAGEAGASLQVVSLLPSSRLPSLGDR

PDZRN4_1, Q6ZMN7 = biological target: PDZRN4_1, Q6ZMN7
PDZRN4_1, Q6ZMN7, sequence (Q6ZMN7 213-318): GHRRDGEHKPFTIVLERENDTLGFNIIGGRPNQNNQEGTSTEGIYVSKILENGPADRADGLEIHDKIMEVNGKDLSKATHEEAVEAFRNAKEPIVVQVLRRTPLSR

DLG2_2, Q15700 = biological target: DLG2_2, Q15700
DLG2_2, Q15700, sequence (Q15700 189-283): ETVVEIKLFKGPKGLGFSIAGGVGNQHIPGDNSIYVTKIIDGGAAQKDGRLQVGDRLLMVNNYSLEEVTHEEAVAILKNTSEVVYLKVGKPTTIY

HTRA4, P83105 = biological target: T5, HTRA4, P83105
T5 sequence (P83105 378-476, limits assumed, looked up): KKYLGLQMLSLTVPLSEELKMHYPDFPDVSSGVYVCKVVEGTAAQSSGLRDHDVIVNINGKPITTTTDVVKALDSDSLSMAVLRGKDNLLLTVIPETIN

APBA1_2, Q02410 = biological target: T6, APBA1_2, Q02410
T6 sequence (Q02410 742-832, limits assumed, looked up): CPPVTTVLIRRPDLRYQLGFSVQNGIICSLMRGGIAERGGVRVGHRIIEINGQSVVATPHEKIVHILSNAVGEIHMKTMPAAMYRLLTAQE

FRMPD4, Q14CM0 = biological target: FRMPD4, Q14CM0
FRMPD4, Q14CM0, sequence (Q14CM0 67-160): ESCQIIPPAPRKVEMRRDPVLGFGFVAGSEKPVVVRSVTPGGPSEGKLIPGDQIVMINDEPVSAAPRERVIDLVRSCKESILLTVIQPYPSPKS

NHERF3_4, Q5T2W1 = biological target: T7, NHERF3_4, Q5T2W1
T7 sequence (Q5T2W1 373-468, limits assumed, looked up): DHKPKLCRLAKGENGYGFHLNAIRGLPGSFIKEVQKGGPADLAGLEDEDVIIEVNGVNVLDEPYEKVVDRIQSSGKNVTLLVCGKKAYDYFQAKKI

Inadl_8, Q8NI35 = biological target: Inadl_8, Q8NI35
Inadl_8, Q8NI35, sequence (Q8NI35 1425-1530): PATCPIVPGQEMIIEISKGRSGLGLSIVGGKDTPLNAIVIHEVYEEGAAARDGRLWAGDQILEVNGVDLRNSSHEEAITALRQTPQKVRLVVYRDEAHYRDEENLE

LAP2, Q96RT1 = biological target: LAP2, Q96RT1
LAP2, Q96RT1, sequence (Q96RT1 other isoform, or with tags, fused parts or gaps): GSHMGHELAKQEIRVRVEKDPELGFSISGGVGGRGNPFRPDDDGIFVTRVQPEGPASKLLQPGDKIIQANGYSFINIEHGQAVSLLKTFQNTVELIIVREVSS

PDZD2_2, O15018 = biological target: T8, PDZD2_2, O15018
T8 sequence (O15018 329-429, limits assumed, looked up): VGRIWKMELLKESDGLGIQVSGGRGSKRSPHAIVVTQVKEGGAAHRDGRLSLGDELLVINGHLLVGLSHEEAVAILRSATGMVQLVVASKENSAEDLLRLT

DLG3_3, Q92796 = biological target: T9, DLG3_3, Q92796
T9 sequence (Q92796 374-475, limits assumed, looked up): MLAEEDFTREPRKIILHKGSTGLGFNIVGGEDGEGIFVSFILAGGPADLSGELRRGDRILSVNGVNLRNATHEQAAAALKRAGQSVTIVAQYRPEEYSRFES

NHERF2_2, Q15599 = biological target: NHERF2_2, Q15599
NHERF2_2, Q15599, sequence (Q15599 142-238): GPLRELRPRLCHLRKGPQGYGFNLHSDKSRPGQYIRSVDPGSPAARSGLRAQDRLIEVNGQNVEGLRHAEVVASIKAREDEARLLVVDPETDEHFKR

GRASP, Q7Z6J2 = biological target: GRASP, Q7Z6J2
GRASP, Q7Z6J2, sequence (Q7Z6J2 96-193): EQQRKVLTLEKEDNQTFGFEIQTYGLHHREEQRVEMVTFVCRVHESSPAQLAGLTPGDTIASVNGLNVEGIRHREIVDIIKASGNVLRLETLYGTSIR

DVL3, Q92997 = biological target: T10, DVL3, Q92997
T10 sequence (Q92997 244-331, limits assumed, looked up): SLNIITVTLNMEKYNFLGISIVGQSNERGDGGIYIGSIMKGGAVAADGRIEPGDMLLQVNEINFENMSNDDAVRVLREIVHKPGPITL

PDZD7_3, Q9H5P4 = biological target: T11, PDZD7_3, Q9H5P4
T11 sequence (Q9H5P4 857-944, limits assumed, looked up): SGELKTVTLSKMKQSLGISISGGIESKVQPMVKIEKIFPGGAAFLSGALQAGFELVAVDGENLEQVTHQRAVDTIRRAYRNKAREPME

CARD11, Q9BXL7 = biological target: T12, CARD11, Q9BXL7
T12 sequence (Q9BXL7 662-765, limits assumed, looked up): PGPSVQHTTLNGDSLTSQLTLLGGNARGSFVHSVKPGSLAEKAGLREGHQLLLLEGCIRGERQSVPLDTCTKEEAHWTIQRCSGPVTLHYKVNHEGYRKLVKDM

MAGI2_2, Q86UL8 = biological target: MAGI2_2, Q86UL8
MAGI2_2, Q86UL8, sequence (Q86UL8 410-522): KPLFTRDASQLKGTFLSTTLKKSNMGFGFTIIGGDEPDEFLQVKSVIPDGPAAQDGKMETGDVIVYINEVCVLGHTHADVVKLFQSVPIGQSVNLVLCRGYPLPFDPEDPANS

[1] = plain residues with an end cap or a label only (N-terminal biotin on a linker: ttds)
[2] = plain residues with an end cap or a label only (N-terminal biotin on a linker: ahx)
[3] = plain residues with an end cap or a label only (N-terminal biotin on a linker: ado-ado)

HTRA2, O43464, sequence (O43464 355-458): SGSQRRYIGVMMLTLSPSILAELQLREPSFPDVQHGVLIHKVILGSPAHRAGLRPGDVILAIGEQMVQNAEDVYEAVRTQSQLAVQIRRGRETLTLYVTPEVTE
NHERF4_2, Q86UT5, sequence (Q86UT5 220-308): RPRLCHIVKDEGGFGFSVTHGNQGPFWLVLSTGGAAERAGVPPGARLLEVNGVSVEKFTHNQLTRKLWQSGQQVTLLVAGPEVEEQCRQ

GARVSKETPL [MAPK12, P53778]
pKd (NHERF4_2, Q86UT5; [1]): below the threshold
pKd (HTRA2, O43464; [1]): below the threshold
pKd (MPP6, Q9NZW5; [1]): below the threshold
pKd (Inadl_10, Q8NI35; [1]): below the threshold
pKd (FRMPD1, Q5SYB0; [1]): below the threshold
pKd (NHERF3_3, Q5T2W1; [1]): below the threshold
pKd (IL16_4, Q14005; [1]): 3.58
pKd (MAGI2_3, Q86UL8; [1]): below the threshold
pKd (Inadl_9, Q8NI35; [1]): below the threshold
pKd (RHPN1, Q8TCX5; [1]): below the threshold
pKd (PDZRN4_1, Q6ZMN7; [1]): 4.71
pKd (DLG2_2, Q15700; [1]): 4.25
pKd (HTRA4, P83105; [1]): below the threshold
pKd (APBA1_2, Q02410; [1]): 3.74
pKd (FRMPD4, Q14CM0; [1]): 4.1
pKd (NHERF3_4, Q5T2W1; [1]): 3.72
pKd (Inadl_8, Q8NI35; [1]): below the threshold
pKd (LAP2, Q96RT1; [1]): below the threshold
pKd (PDZD2_2, O15018; [1]): below the threshold
pKd (DLG3_3, Q92796; [1]): 4.01
pKd (NHERF2_2, Q15599; [1]): 4.09
pKd (GRASP, Q7Z6J2; [1]): 3.66
pKd (DVL3, Q92997; [1]): below the threshold
pKd (PDZD7_3, Q9H5P4; [1]): 3.86
pKd (CARD11, Q9BXL7; [1]): below the threshold
pKd (MAGI2_2, Q86UL8; [1]): 3.83

KDECVIATEV [DLL1, O00548]
pKd (NHERF4_2, Q86UT5; [2]): below the threshold
pKd (HTRA2, O43464; [2]): below the threshold
pKd (MPP6, Q9NZW5; [2]): below the threshold
pKd (Inadl_10, Q8NI35; [2]): below the threshold
pKd (FRMPD1, Q5SYB0; [2]): below the threshold
pKd (NHERF3_3, Q5T2W1; [2]): below the threshold
pKd (IL16_4, Q14005; [2]): below the threshold
pKd (MAGI2_3, Q86UL8; [2]): below the threshold
pKd (Inadl_9, Q8NI35; [2]): 3.87
pKd (RHPN1, Q8TCX5; [2]): 3.95
pKd (PDZRN4_1, Q6ZMN7; [2]): below the threshold
pKd (DLG2_2, Q15700; [2]): 3.62
pKd (HTRA4, P83105; [2]): 3.53
pKd (APBA1_2, Q02410; [2]): 3.99
pKd (FRMPD4, Q14CM0; [2]): below the threshold
pKd (NHERF3_4, Q5T2W1; [2]): below the threshold
pKd (Inadl_8, Q8NI35; [2]): 3.64
pKd (LAP2, Q96RT1; [2]): 3.59
pKd (PDZD2_2, O15018; [2]): 4.51
pKd (DLG3_3, Q92796; [2]): below the threshold
pKd (NHERF2_2, Q15599; [2]): below the threshold
pKd (GRASP, Q7Z6J2; [2]): 4.31
pKd (DVL3, Q92997; [2]): below the threshold
pKd (PDZD7_3, Q9H5P4; [2]): 4.63
pKd (CARD11, Q9BXL7; [2]): below the threshold
pKd (MAGI2_2, Q86UL8; [2]): below the threshold

KQVVPFSSSV [GDA, Q9Y2T3]
pKd (NHERF4_2, Q86UT5; [1]): below the threshold
pKd (HTRA2, O43464; [1]): below the threshold
pKd (MPP6, Q9NZW5; [1]): below the threshold
pKd (Inadl_10, Q8NI35; [1]): below the threshold
pKd (FRMPD1, Q5SYB0; [1]): below the threshold
pKd (NHERF3_3, Q5T2W1; [1]): below the threshold
pKd (IL16_4, Q14005; [1]): below the threshold
pKd (MAGI2_3, Q86UL8; [1]): below the threshold
pKd (Inadl_9, Q8NI35; [1]): 3.52
pKd (RHPN1, Q8TCX5; [1]): below the threshold
pKd (PDZRN4_1, Q6ZMN7; [1]): 3.49
pKd (DLG2_2, Q15700; [1]): 3.89
pKd (HTRA4, P83105; [1]): below the threshold
pKd (APBA1_2, Q02410; [1]): below the threshold
pKd (FRMPD4, Q14CM0; [1]): below the threshold
pKd (NHERF3_4, Q5T2W1; [1]): below the threshold
pKd (Inadl_8, Q8NI35; [1]): 4.89
pKd (LAP2, Q96RT1; [1]): 3.88
pKd (PDZD2_2, O15018; [1]): 4.93
pKd (DLG3_3, Q92796; [1]): below the threshold
pKd (NHERF2_2, Q15599; [1]): below the threshold
pKd (GRASP, Q7Z6J2; [1]): 3.86
pKd (DVL3, Q92997; [1]): below the threshold
pKd (PDZD7_3, Q9H5P4; [1]): 3.59
pKd (CARD11, Q9BXL7; [1]): below the threshold
pKd (MAGI2_2, Q86UL8; [1]): below the threshold

PDSYHRRDFW [U2AF2, P26368]
pKd (NHERF4_2, Q86UT5; [3]): 3.64
pKd (HTRA2, O43464; [3]): below the threshold
pKd (MPP6, Q9NZW5; [3]): below the threshold
pKd (Inadl_10, Q8NI35; [3]): below the threshold
pKd (FRMPD1, Q5SYB0; [3]): below the threshold
pKd (NHERF3_3, Q5T2W1; [3]): below the threshold
pKd (IL16_4, Q14005; [3]): 3.68
pKd (MAGI2_3, Q86UL8; [3]): below the threshold
pKd (Inadl_9, Q8NI35; [3]): below the threshold
pKd (RHPN1, Q8TCX5; [3]): below the threshold
pKd (PDZRN4_1, Q6ZMN7; [3]): 3.89
pKd (DLG2_2, Q15700; [3]): below the threshold
pKd (HTRA4, P83105; [3]): 3.99
pKd (APBA1_2, Q02410; [3]): below the threshold
pKd (FRMPD4, Q14CM0; [3]): 3.71
pKd (NHERF3_4, Q5T2W1; [3]): below the threshold
pKd (Inadl_8, Q8NI35; [3]): 3.48
pKd (LAP2, Q96RT1; [3]): below the threshold
pKd (PDZD2_2, O15018; [3]): below the threshold
pKd (DLG3_3, Q92796; [3]): below the threshold
pKd (NHERF2_2, Q15599; [3]): 3.79
pKd (GRASP, Q7Z6J2; [3]): below the threshold
pKd (DVL3, Q92997; [3]): below the threshold
pKd (PDZD7_3, Q9H5P4; [3]): below the threshold
pKd (CARD11, Q9BXL7; [3]): below the threshold
pKd (MAGI2_2, Q86UL8; [3]): below the threshold
